Among the data in the supplement of paper PMC10126150 are switch fluorescence ratio values, retold here.

± gives the standard deviation of the averaged measurements.

The data set relates to ATP. Put plainly: switch fluorescence ratio, 500 uM ATP over buffer (Cy3 cluster intensity, sum of 5 cycles each) (fold (ratio)); higher = stronger signal-on switching upon ATP binding; sequences stand for … in TCGTCGGCAGCGTCAGATGTGTATAAGAGACAGTTTTTTTTTTTTTTTTTTTTTTTTT…TC. The following applies: aptamer strand: ATP DNA aptamer (quencher-CACCTGGGGGAGTATTGCGGAGGAAGG + anchor), 100 nM annealed; ATP concentration: 500 uM. Put shortly: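 The quencher-labelled ATP aptamer, at 100 nM, was annealed to Cy3-labelled switching-strand clusters on a modified Illumina MiSeq flow-cell. The clusters were imaged in selection buffer, then after 15 min with 500 uM ATP at 22 °C, and this buffer/ATP cycle ran five times with NaOH stripping and re-annealing between runs. Per-cluster fluorescence ratios, summed target-cycle over summed buffer-cycle Cy3 intensity, were averaged per switch-domain sequence. Clusters outside 100-1000 RFU were excluded.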
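Further: ATP exposure 15 min at 22 °C before imaging.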

Turning to AGCGGATCGG, the switch fluorescence ratio stood at 0.991 ± 0.02.
With AGCGGGGATA, the switch fluorescence ratio is 1.05 ± 0.024.
Consider AGCGGGGGGG, for which the switch fluorescence ratio was 1.02 ± 0.036.
Next, AGCGGGTTTC: 1.02 ± 0.015; AGCGTAGTGG: 1.027 ± 0.0061; AGCGTATGCA: 1.02 ± 0.024.
Next, AGCGTGATAC: 4.4 ± 0.36; AGCGTTGAAG: 0.997 ± 0.022; AGCGTTGAGT: 0.985 ± 0.032.
The result for AGCTAATTCG reads 1.03 ± 0.045.
AGCTAGCAG: the switch fluorescence ratio came to 1.042 ± 0.0036.
The result for AGCTAGCAGG reads 0.974 ± 0.039; that for AGCTAGGGGA, 1.08 ± 0.077; that for AGCTAGTATG, 0.993 ± 0.016.
As to AGCTATGCGC, the switch fluorescence ratio was found to be 0.963 ± 0.056.
For AGCTATGTTT, the switch fluorescence ratio came to 0.979 ± 0.04.
The result for AGCTATTGGG reads 0.975 ± 0.045; that for AGCTCATCGC, 1.05 ± 0.023.
For the sequence AGCTCCTCAT, the switch fluorescence ratio came out at 1.1 ± 0.03.
Take AGCTCGACGC: the switch fluorescence ratio came out at 1.19 ± 0.064.
Next, AGCTCGGGTA: 0.998 ± 0.025; AGCTCTGCTA: 1.02 ± 0.02; AGCTGAAGCC: 1.03 ± 0.028.
The result for AGCTGAAGTG reads 0.972 ± 0.018.
Regarding AGCTGACAGT, the switch fluorescence ratio stood at 0.981 ± 0.0044.
The result for AGCTGAGGGA reads 1.015 ± 0.0066; that for AGCTGATGGG, 1.01 ± 0.014.
The result for AGCTGCTACG reads 0.996 ± 0.027; that for AGCTGGATGC, 1.04 ± 0.036; that for AGCTGGCAGC, 1.009 ± 0.0012.
Next, AGCTGGCTAA: 0.967 ± 0.014; AGCTGTAGTT: 1 ± 0.034; AGCTTACTGT: 1.08 ± 0.019.
For AGCTTATGTC, the switch fluorescence ratio is 0.935 ± 0.057.
Next, AGCTTCGGAC: 1.35 ± 0.12; AGCTTCGTTC: 1.014 ± 0.0052; AGCTTTAGTT: 1.008 ± 0.0019.
Turning to AGCTTTGGGT, the switch fluorescence ratio was 1.01 ± 0.016.
Next, AGGAAAAAAA: 2.85 ± 2.6; AGGAACATTA: 1.01 ± 0.054.
The result for AGGAAGAGGC reads 1.08 ± 0.18.
Next, AGGAAGCAGT: 1.018 ± 0.0085; AGGAAGCTCT: 1.03 ± 0.023; AGGAAGGCA: 0.975 ± 0.05.
For AGGAATAAA, the switch fluorescence ratio is 0.976 ± 0.052.
The result for AGGAATATAC reads 1.11 ± 0.066; that for AGGAATCCGT, 1.03 ± 0.022.
The result for AGGAATGGCT reads 0.985 ± 0.017.
Next, AGGAATGTTA: 1.03 ± 0.018; AGGAATTGGA: 1.01 ± 0.1.
As for AGGAATTTTT, the switch fluorescence ratio was found to be 0.968 ± 0.018.
The result for AGGACAGCAT reads 1.07 ± 0.023; that for AGGACGGCCA, 0.998 ± 0.021.
Consider AGGACGGGGG, for which the switch fluorescence ratio amounted to 1.02 ± 0.033.
Next, AGGACTTGAA: 1.02 ± 0.035; AGGAGAAAAT: 1.04 ± 0.028; AGGAGACGAA: 0.985 ± 0.031.
The result for AGGAGAGGTG reads 1.102 ± 0.002; that for AGGAGATGGG, 1.02 ± 0.034.
With AGGAGGAAGG, the switch fluorescence ratio was 1.05 ± 0.086.
The result for AGGAGGACGT reads 0.964 ± 0.06.
As to AGGAGGGCGT, the switch fluorescence ratio is 0.969 ± 0.018.
AGGAGGGTAG: the switch fluorescence ratio came to 1 ± 0.021.
Next, AGGAGGGTGG: 1.02 ± 0.044.
The result for AGGAGGTATG reads 0.976 ± 0.027.
The result for AGGAGGTGGT reads 1.04 ± 0.015; that for AGGAGGTTCC, 1.02 ± 0.061.
Consider AGGAGTATGA, for which the switch fluorescence ratio was found to be 1.03 ± 0.029.
As for AGGAGTCTAT, the switch fluorescence ratio turned out to be 0.9774 ± 0.0094.
The result for AGGAGTGCCA reads 1.017 ± 0.0093; that for AGGAGTGTCA, 0.965 ± 0.013.
The result for AGGAGTGTGG reads 1.01 ± 0.031; that for AGGAGTTATG, 1.015 ± 0.0046.
AGGATAAAGT: the switch fluorescence ratio stood at 0.9875 ± 0.0077.
Next, AGGATAGTGT: 0.985 ± 0.036.
The result for AGGATCGACG reads 0.925 ± 0.013; that for AGGATGATGC, 0.979 ± 0.026.
Next, AGGATGCTCA: 1.01 ± 0.011; AGGATGGTGA: 0.968 ± 0.015.
As for AGGATGGTTA, the switch fluorescence ratio came to 0.968 ± 0.076.
As for AGGATGTAAA, the switch fluorescence ratio was found to be 1.025 ± 0.0045.
As for AGGATTGGTT, the switch fluorescence ratio was determined as 1 ± 0.025.
Next, AGGCAAAAAT: 1.008 ± 0.004; AGGCAAAGTT: 0.989 ± 0.026; AGGCAACCAA: 1.02 ± 0.017.
The result for AGGCACGTGT reads 1.02 ± 0.015; that for AGGCAGAATC, 1.01 ± 0.037; that for AGGCAGCTGT, 1.01 ± 0.018.
Next, AGGCAGGCCA: 1.17 ± 0.056; AGGCAGGGAT: 1.01 ± 0.057; AGGCAGGTAC: 1.246 ± 0.0051.
With AGGCAGGTTG, the switch fluorescence ratio was determined as 0.985 ± 0.019.
The result for AGGCATAAGG reads 0.9897 ± 0.0077; that for AGGCATTGGC, 0.997 ± 0.048.
The result for AGGCATTTTA reads 0.983 ± 0.053; that for AGGCCCGTGT, 0.98 ± 0.068; that for AGGCCCTTTA, 1.12 ± 0.17.
Next, AGGCCGGAAG: 0.9945 ± 0.0095.
AGGCCGTAGG: the switch fluorescence ratio is 0.937 ± 0.048.
The result for AGGCCTGAAA reads 0.983 ± 0.07; that for AGGCCTGAGC, 1 ± 0.025; that for AGGCCTTGTT, 0.974 ± 0.019.
The result for AGGCGAGGAT reads 1.012 ± 0.0075; that for AGGCGATCTG, 1.01 ± 0.041; that for AGGCGCAGGT, 1.01 ± 0.021.
Next, AGGCGCCTGT: 1.02 ± 0.017; AGGCGCTCTG: 0.99 ± 0.0045; AGGCGGACGT: 1 ± 0.0089.
For AGGCGGGGAG, the switch fluorescence ratio stood at 1.02 ± 0.026.
Take AGGCGGGGCG: the switch fluorescence ratio is 1.02 ± 0.022.
The result for AGGCGTAAGG reads 1.03 ± 0.015.
The result for AGGCTCATGG reads 1.028 ± 0.0089.
The result for AGGCTGGGGG reads 0.996 ± 0.013; that for AGGCTGGTCT, 0.952 ± 0.1.
Turning to AGGCTTTCTC, the switch fluorescence ratio came to 1.14 ± 0.11.
Next, AGGCTTTGG: 0.999 ± 0.051; AGGGAAAAAC: 2.45 ± 2.
Next, AGGGAAAAAG: 1.02 ± 0.045; AGGGAAAGTT: 1.01 ± 0.024.
Next, AGGGAAGCT: 1.05 ± 0.015.
